Measurements published in IntAct's records for PubMed 31515488.

B1: Pachytene checkpoint protein 2 homolog (Homo sapiens), Q15645 (parent)
chain: MDEAVGDLKQALPCVAESPTVHVEVHQRGSSTAKKEDINLSVRKLLNRHNIVFGDYTWTEFDEPFLTRNVQSVSIIDTELKVKDSQPIDLSACTVALHIFQLNEDGPSSENLEEETENIIAANHWVLPAAEFHGLWDSLVYDVEVKSHLLDYVMTTLLFSDKNVNSNLITWNRVVLLHGPPGTGKTSLCKALAQKLTIRLSSRYRYGQLIEINSHSLFSKWFSESGKLVTKMFQKIQDLIDDKDALVFVLIDEVESLTAARNACRAGTEPSDAIRVVNAVLTQIDQIKRHSNVVILTTSNITEKIDVAFVDRADIKQYIGPPSAAAIFKIYLSCLEELMKCQIIYPRQQLLTLRELEMIGFIENNVSKLSLLLNDISRKSEGLSGRVLRKLPFLAHALYVQAPTVTIEGFLQALSLAVDKQFEERKKLAAYI
B2: Seipin (Homo sapiens), Q96G97-4 (parent)
chain: MSTEKVDQKEEAGEKEVCGDQIKGPDKEEEPPAAASHGQGWRPGGRAARNARPEPGARHPALPAMVNDPPVPALLWAQEVGQVLAGRARRLLLQFGVLFCTILLLLWVSVFLYGSFYYSYMPTVSHLSPVHFYYRTDCDSSTTSLCSFPVANVSLTKGGRDRVLMYGQPYRVTLELELPESPVNQDLGMFLVTISCYTRGGRIISTSSRSVMLHYRSDLLQMLDTLVFSSLLLFGFAEQKQLLEVELYADYRENSYVPTTGAIIEIHSKRIQLYGAYLRIHAHFTGLRYLLYNFPMTCAFIGVASNFTFLSVIVLFSYMQWVWGGIWPRHRFSLQVNIRKRDNSRKEVQRRISAHQPGPEGQEESTPQSDVTEDGESPEDPSGTEGQLSEEEKPDQQPLSGEEELEPEASDGSGSWEDAALLTEANLPAPAPASASAPVLETLGSSEPAGGALRQRPTCSSS
B3: Transmembrane protein 187 (Homo sapiens), Q14656 (parent)
chain: MNPEWGQAFVHVAVAGGLCAVAVFTGIFDSVSVQVGYEHYAEAPVAGLPAFLAMPFNSLVNMAYTLLGLSWLHRGGAMGLGPRYLKDVFAAMALLYGPVQWLRLWTQWRRAAVLDQWLTLPIFAWPVAWCLYLDRGWRPWLFLSLECVSLASYGLALLHPQGFEVALGAHVVAAVGQALRTHRHYGSTTSATYLALGVLSCLGFVVLKLCDHQLARWRLFQCLTGHFWSKVCDVLQFHFAFLFLTHFNTHPRFHPSGGKTR
partner: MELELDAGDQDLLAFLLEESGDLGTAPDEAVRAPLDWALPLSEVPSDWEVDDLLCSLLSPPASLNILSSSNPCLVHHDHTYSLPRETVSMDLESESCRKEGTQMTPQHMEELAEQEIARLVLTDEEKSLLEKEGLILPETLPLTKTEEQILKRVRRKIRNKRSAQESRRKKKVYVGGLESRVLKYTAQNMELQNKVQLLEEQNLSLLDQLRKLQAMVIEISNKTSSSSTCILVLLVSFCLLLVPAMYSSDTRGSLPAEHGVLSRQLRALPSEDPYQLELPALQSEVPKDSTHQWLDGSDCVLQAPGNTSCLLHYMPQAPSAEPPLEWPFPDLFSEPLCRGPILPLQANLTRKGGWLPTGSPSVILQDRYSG
B4: Proteasome subunit beta type-1 (Homo sapiens), P20618 (parent)
chain: MLSSTAMYSAPGRDLGMEPHRAAGPLQLRFSPYVFNGGTILAIAGEDFAIVASDTRLSEGFSIHTRDSPKCYKLTDKTVIGCSGFHGDCLTLTKIIEARLKMYKHSNNKAMTTGAIAAMLSTILYSRRFFPYYVYNIIGGLDEEGKGAVYSFDPVGSYQRDSFKAGGSASAMLQPLLDNQVGFKNMQNVEHVPLSLDRAMRLVKDVFISAAERDVYTGDALRICIVTKEGIREETVSLRKD
partner: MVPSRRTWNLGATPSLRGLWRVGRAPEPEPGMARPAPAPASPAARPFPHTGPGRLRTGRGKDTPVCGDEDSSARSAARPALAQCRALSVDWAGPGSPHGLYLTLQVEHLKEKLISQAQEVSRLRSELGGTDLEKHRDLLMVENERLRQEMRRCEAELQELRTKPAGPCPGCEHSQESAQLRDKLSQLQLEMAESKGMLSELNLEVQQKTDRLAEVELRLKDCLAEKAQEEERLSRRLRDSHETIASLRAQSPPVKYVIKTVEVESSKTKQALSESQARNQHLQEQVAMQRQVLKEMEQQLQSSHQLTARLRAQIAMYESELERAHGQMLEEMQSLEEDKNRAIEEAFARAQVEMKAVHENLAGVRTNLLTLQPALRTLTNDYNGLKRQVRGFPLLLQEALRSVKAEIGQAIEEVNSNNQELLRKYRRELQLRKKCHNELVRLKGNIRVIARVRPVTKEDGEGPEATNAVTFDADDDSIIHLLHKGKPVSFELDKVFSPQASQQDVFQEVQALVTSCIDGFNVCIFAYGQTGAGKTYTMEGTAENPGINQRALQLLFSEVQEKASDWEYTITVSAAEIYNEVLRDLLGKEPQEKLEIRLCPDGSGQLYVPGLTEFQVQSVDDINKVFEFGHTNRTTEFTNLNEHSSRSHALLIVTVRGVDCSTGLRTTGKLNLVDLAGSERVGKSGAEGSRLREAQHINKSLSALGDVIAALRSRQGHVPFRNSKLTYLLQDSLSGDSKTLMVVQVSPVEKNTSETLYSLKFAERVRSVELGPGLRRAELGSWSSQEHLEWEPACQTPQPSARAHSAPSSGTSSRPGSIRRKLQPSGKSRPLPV
B5: Protein LDOC1 (Homo sapiens), O95751 (parent)
chain: MVDELVLLLHALLMRHRALSIENSQLMEQLRLLVCERASLLRQVRPPSCPVPFPETFNGESSRLPEFIVQTASYMLVNENRFCNDAMKVAFLISLLTGEAEEWVVPYIEMDSPILGDYRAFLDEMKQCFGWDDDEDDDDEEEEDDY
partner: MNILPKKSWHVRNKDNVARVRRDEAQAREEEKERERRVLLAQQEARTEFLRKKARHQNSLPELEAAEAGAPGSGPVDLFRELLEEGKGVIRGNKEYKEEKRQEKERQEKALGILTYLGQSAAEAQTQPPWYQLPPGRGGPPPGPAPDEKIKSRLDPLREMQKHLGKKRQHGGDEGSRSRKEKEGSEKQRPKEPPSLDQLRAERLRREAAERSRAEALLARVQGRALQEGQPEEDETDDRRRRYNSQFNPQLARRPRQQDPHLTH
B6: Isoform 1 of Aminoacylase-1 (Homo sapiens), Q03154-1 (parent)
chain: MTSKGPEEEHPSVTLFRQYLRIRTVQPKPDYGAAVAFFEETARQLGLGCQKVEVAPGYVVTVLTWPGTNPTLSSILLNSHTDVVPVFKEHWSHDPFEAFKDSEGYIYARGAQDMKCVSIQYLEAVRRLKVEGHRFPRTIHMTFVPDEEVGGHQGMELFVQRPEFHALRAGFALDEGIANPTDAFTVFYSERSPWWVRVTSTGRPGHASRFMEDTAAEKLHKVVNSILAFREKEWQRLQSNPHLKEGSVTSVNLTKLEGGVAYNVIPATMSASFDFRVAPDVDFKAFEEQLQSWCQAAGEGVTLEFAQKWMHPQVTPTDDSNPWWAAFSRVCKDMNLTLEPEIMPAATDNRYIRAVGVPALGFSPMNRTPVLLHDHDERLHEAVFLRGVDIYTRLLPALASVPALPSDS
B7: Syntaxin-3 (Homo sapiens), Q13277 (parent)
chain: MKDRLEQLKAKQLTQDDDTDAVEIAIDNTAFMDEFFSEIEETRLNIDKISEHVEEAKKLYSIILSAPIPEPKTKDDLEQLTTEIKKRANNVRNKLKSMEKHIEEDEVRSSADLRIRKSQHSVLSRKFVEVMTKYNEAQVDFRERSKGRIQRQLEITGKKTTDEELEEMLESGNPAIFTSGIIDSQISKQALSEIEGRHKDIVRLESSIKELHDMFMDIAMLVENQGEMLDNIELNVMHTVDHVEKARDETKKAVKYQSQARKKLIIIIVLVVVLLGILALIIGLSVGLN
B8: Farnesyl pyrophosphate synthase (Homo sapiens), P14324 (parent)
chain: MPLSRWLRSVGVFLLPAPYWAPRERWLGSLRRPSLVHGYPVLAWHSARCWCQAWTEEPRALCSSLRMNGDQNSDVYAQEKQDFVQHFSQIVRVLTEDEMGHPEIGDAIARLKEVLEYNAIGGKYNRGLTVVVAFRELVEPRKQDADSLQRAWTVGWCVELLQAFFLVADDIMDSSLTRRGQICWYQKPGVGLDAINDANLLEACIYRLLKLYCREQPYYLNLIELFLQSSYQTEIGQTLDLLTAPQGNVDLVRFTEKRYKSIVKYKTAFYSFYLPIAAAMYMAGIDGEKEHANAKKILLEMGEFFQIQDDYLDLFGDPSVTGKIGTDIQDNKCSWLVVQCLQRATPEQYQILKENYGQKEAEKVARVKALYEELDLPAVFLQYEEDSYSHIMALIEQYAAPLPPAVFLGLARKIYKRRK
partner: B3 partner

Variants of: B1
Settings: with meak7_human MEAK7, Q6P9B6
Chain of meak7_human MEAK7, Q6P9B6 (Q6P9B6 whole entry): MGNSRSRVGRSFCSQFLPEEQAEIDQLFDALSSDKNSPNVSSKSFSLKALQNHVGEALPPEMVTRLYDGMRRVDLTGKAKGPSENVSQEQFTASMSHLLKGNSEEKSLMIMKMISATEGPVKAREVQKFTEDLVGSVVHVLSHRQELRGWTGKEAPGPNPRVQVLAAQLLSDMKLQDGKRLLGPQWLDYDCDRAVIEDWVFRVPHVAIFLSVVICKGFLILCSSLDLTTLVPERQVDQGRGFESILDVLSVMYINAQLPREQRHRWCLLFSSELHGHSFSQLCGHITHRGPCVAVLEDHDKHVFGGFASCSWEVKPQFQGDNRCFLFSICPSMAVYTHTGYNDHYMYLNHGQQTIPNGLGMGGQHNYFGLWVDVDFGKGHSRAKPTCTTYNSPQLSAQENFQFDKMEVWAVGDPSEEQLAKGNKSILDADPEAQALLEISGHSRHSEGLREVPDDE

Variant	effect of a mutation on the interaction
G409E	with no effect

Variants of: B1
Settings: with fnd3b_human FNDC3B

Variant	effect of a mutation on the interaction
G409E	with no effect

Variants of: B2
Settings: with bscl2_human BSCL2, Q96G97

Variant	effect of a mutation on the interaction
D20E	with no effect

Variants of: B2
Settings: with tmm19_human TMEM19, Q96HH6
Chain of tmm19_human TMEM19, Q96HH6 (Q96HH6 whole entry): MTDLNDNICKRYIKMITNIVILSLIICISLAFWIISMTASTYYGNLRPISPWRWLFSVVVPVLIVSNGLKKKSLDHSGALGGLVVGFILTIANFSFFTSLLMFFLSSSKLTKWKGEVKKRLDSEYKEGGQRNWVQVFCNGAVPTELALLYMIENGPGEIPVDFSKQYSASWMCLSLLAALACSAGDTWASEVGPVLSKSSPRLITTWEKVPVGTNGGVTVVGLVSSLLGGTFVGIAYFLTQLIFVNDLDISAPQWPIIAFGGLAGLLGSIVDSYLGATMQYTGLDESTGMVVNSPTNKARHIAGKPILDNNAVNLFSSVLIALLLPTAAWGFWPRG

Variant	effect of a mutation on the interaction
D20E	with no effect

Variants of: B3
Settings: with creb3_human CREB3, O43889

Variant	effect of a mutation on the interaction
R138Q	with no effect

Variants of: B4
Settings: with kifc3_human KIFC3, Q9BVG8

Variant	effect of a mutation on the interaction
P11A	with no effect

Variants of: B5
Settings: with leng1_human LENG1, Q96BZ8

Variant	effect of a mutation on the interaction
L12H	disrupting interaction strength

Variants of: B6
Settings: with 8odp_human NUDT1, P36639

Variant	effect of a mutation on the interaction
E381D	with no effect

Variants of: B6
Settings: with 8odp_human NUDT1, P36639
Remark: another data set of the same source

Variant	effect of a mutation on the interaction
R197W	with no effect

Variants of: B7
Settings: with stx4_human STX4, Q12846
Chain of stx4_human STX4, Q12846 (Q12846 whole entry): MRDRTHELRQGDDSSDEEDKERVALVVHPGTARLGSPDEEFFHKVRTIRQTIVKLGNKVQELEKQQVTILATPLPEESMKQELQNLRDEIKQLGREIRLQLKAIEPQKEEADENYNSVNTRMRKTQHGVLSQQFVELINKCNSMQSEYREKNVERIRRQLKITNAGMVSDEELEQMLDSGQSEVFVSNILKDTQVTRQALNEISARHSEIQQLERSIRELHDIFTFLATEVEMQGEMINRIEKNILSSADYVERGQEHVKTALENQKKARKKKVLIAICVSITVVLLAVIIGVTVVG

Variant	effect of a mutation on the interaction
H198Y	disrupting interaction strength
G276S	with no effect

Variants of: B8
Settings: with creb3_human CREB3, O43889

Variant	effect of a mutation on the interaction
R150Q	with no effect
